Source: the RNAGym collection of RNA variant scans (doi:10.1073/pnas.2313332121)

B1: TPR t1 (parent)
chain: GACCAAUCUGCCCUCAGAGCUCGAGAACAUCUUCGGAUGCAGAGGAGGCAGGCUUCGGUGGCGCGAUAGCGCCAACGUCCUCAACCUCCAAUGCAUCCCACCACAUGAUGAUGCCUGAAGAGCCUUGGUUUUUUG

Variants of: B1
Assay: polymerase ribozyme fitness, log enrichment relative to wild type (log ratio); higher = more active; in vitro selection for triplet polymerase activity
Procedure, shortened: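 Input and output libraries were sequenced on Illumina after a single in vitro selection round, run in triplicate on PCR-built, transcribed mutant libraries of each subunit of a heterodimeric triplet polymerase ribozyme. Selection annealed libraries to a biotinylated primer, the partner subunit and triplets, incubated them frozen at −7 °C, then gel-excised extended constructs for streptavidin-bead capture and RT-PCR. Genotypes with ≥10 input reads and ≥1 read per output were kept. Fitness is the logarithm, taken in base 2, of genotype enrichment divided by wild-type enrichment, using inverse-variance-weighted replicate averages.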

Row | Variant | polymerase ribozyme fitness (log ratio)
1 | C13A G113U | -4.1
2 | C11U A83U C101G | -2.28
3 | A50U G110U | -4.06
4 | G45C U129C | -2.28
5 | C115A G122U U132C | -0.273
6 | C13U C56U U92G G93C C115A G120A | -0.609
7 | C97U U129C | -1.16
8 | C34A C73U C82U C99A | -4.69
9 | A43U U87A G117A | -3.08
10 | G63U G120U | -0.921
11 | G60A C98U | -0.842
12 | C12U G52A U78A | -0.0318
13 | C49A U78G U96G | -0.964
14 | C3U G39U U81C A111C | -2.34
15 | G61U C115A | 0.264
16 | C8G U21A C76G C99A U112A | -5.05
17 | G52C G69A | -3.55
18 | C13U C56A C114U | -1.73
19 | C56G A66U C88U C115A | -1.49
20 | G10A A41C C56U U78G C82U | -1.79
21 | A37U G127A | -2.32
22 | C12U C22G G45A C94U C99U | -4.27
23 | U59G C82A G110A | -0.532
24 | C11A C89A A111U G122A | -5.04

Row | Variant | polymerase ribozyme fitness (log ratio)
25 | A74U A84U U129G | -1.9
26 | C28G U59A | -3.18
27 | U55G C104A | -1.59
28 | C49G A91U | -2.92
29 | C40U C62U C73G C85G | -5.15
30 | C8G G71U C82U C86U | -1.12
31 | C28G A95U G110C A111C U133A | -1.6
32 | C28G U38C G77C A84U U92C G113U U129G | -5.83
33 | G71A C86U | 0.0346
34 | C34U A41U C72U A105C G113C | -7.42
35 | C15U U78G C114U | -4.55
36 | C12G G52A G61C C88U G120U | -3.61
37 | G48C C64G C124U | -5.87
38 | A29U G127U | -3.66
39 | C98U U112G | -3.32
40 | G71A C82U | -0.155
41 | G47U G61A U131A | -0.875
42 | A26G A74G G93U U106A U109C | -3.92
43 | A46G G69U U78A C94U C115A G127C | -2.24
44 | G36U C73U | -2.28
45 | C8U G63C C123A U132A | 1.06
46 | A5U A50U G61U C88G | -1
47 | G47C U106A | -1.41
48 | C20A G65A C94G A105G G110A U125G G128U | -5.13

Row | Variant | polymerase ribozyme fitness (log ratio)
49 | G44A G48C | -1.44
50 | A26U G128C | -4.92
51 | U9G C73A | -0.668
52 | A5U U14G A83C A111C | -2.47
53 | C15U C97G A121C | -4.09
54 | G69C U109A | -8.01
55 | G51U C123U | -2.12
56 | G42C G63A G93C G113U | -5.92
57 | C11G C20G A24G U116C | -6.56
58 | U21A G42C U59C U130G | -2.41
59 | C64U | -0.125
60 | G45U G63U C101G U112A | -2.32
61 | U7A A37U C70G U78A | -3.04
62 | C4G C11A G71A C89U A111U U112A C123A G127C | -2.11
63 | C98A A121U | -2.52
64 | G42U C82A | -1.61
65 | C22U C40G | -4.26
66 | C8G C15U C22U | -4.73
67 | C8A C12U | -0.964
68 | C40G G71U | -1.23
69 | C56G A90U U92G C97U | -2.65
70 | U32C C104U | 0.382
71 | G42C A50C | -2.31
72 | A26U C49U A84C C124G | -2.34

Row | Variant | polymerase ribozyme fitness (log ratio)
73 | U54A C62A | -0.751
74 | U9G C11A G63C | -0.534
75 | C20A C70U C76G | -3.5
76 | C56U C123G | 1.1
77 | A43U G44C G45A A83C G110A | -6.81
78 | G71A U78C | -0.782
79 | C40U C70A C102A C124A | -3.93
80 | C62U G63U U78G | -3.96
81 | C13A G17U | -4.98
82 | C3A U7G G10A C49G C104U G110C C124U | -4.49
83 | G39U C88U G107U G113A G122A | -6.96
84 | C73G C123G | 1.2
85 | U14G C73U A90G C124A | 1.54
86 | A90U C104A G113C | -3.66
87 | A91C G127A | -2.15
88 | C40U C101A U112C | 0.157
89 | G10C C115A G128A | -3.1
90 | U78G C101G | -1.76
91 | C13U A16C C101G | -2.83
92 | C115U G120C C123A | 0.543
93 | C34A G110A | -5.44
94 | U14A A18U G60C | -4.66
95 | A29U G45C U55G C64U G93U U109A G117U | -5.42
96 | C3A U7A C123U | 0.267

Row | Variant | polymerase ribozyme fitness (log ratio)
97 | C70U C85U A91C | -3.52
98 | C8A U33A G42U C73U U112A C123A | -5.52
99 | U59G U96A G128A | -2.77
100 | C12U G23A | -3.55
101 | C70A G77A A90G | -1.37
102 | C12U G17C C72G C82G U112C C123U U131C | -3.8
103 | G61U U96G U129G | -1.29
104 | C62A U96A U112C | -0.2
105 | A84U G135U | -1.03
106 | G36U C73U C114G C115G A119C G127U | -6.83
107 | A46C A50U G71U | -1.86
108 | G45A G52U C79U A95C A121C | -0.812
109 | C40G C123G | 0.299
110 | G47C C86G C124A | 1
111 | A26U A41C A46U G61A C101U | -4.43
112 | C8A C12A C34U C56G G71A G77A | -4.02
113 | G42U A119U | -1.27
114 | U9G G23A G60A G71C G113U G135C | -5.28
115 | U59A A111C G120A | -0.645
116 | C49A C73A U130C | 0.174
117 | A43G G45U C72G | -2.45
118 | C73G C80U | -1.77
119 | C22G G57A C124U | -2.07
120 | C102U U132C | -1.91

Row | Variant | polymerase ribozyme fitness (log ratio)
121 | A41C C73A C86G C104A | -4.53
122 | U14G C72A U106G | -3.74
123 | C11G U32A A46U C85A U126G | -5.61
124 | G45U C56U | -1.13
125 | U21A A46G C114G | -3.92
126 | G93U A111G G122A | -1.2
127 | C11U G17C C49A G58C | -6.04
128 | C20A A50G A74U | -3.16
129 | C15U A18U C31A G39U U54A C70U C114U C115G | -5.12
130 | C40G C62A C124A | -0.241
131 | C28G C98U | -4.78
132 | C62A A83U U92A U116C | -5.36
133 | C28U G63U | -3.07
134 | C34A G71C | -4.06
135 | G45U A84C C94A | -2.59
136 | C13G G44A G63U G120U C123G | -0.471
137 | C12U G44C C79A C89A | -1.32
138 | C49U U78G U96A G113A C115A | -5.23
139 | A74U C82U G120A G122U | -0.0704
140 | G71A A90C G120A | -1.97
141 | C12U A24G G36A | -1.4
142 | A26G G60U | -2.17
143 | A16U G117U C123A | -4.24
144 | C4G C13U C31G C34G G63A C79U G113U | -7.83

Row | Variant | polymerase ribozyme fitness (log ratio)
145 | C20A G36A | -4.23
146 | G63C A83U | -1.48
147 | G42C G128C | -4.09
148 | A83U A95G C104G A105C C115A G117U | -5.76
149 | U55G G69C | -1.57
150 | G19A C22G A43C G71A C89A U125A | -6.8
151 | C40G U81A | -2.17
152 | A2G C13U G69C | -0.807
153 | C15U A43U A84C | -2.66
154 | C20U G63U A118G U132A | -2.9
155 | U9A G47U C79A A83C | -3.93
156 | C101A A121U | -0.684
157 | A2G C13U A41C G48C U78G A111G | -1.71
158 | U7A A27U G61C G117U | -5.69
159 | C3A U21A G120C | -1.39
160 | U30C A43U | -4.23
161 | G39C G48A G71U | -1.51
162 | C20U G69A G120U | -4.11
163 | A111G A121C | 0.741
164 | C40A A41U | -2.43
165 | C73U A103U | -4.35
166 | C8U C101U | 0.244
167 | C40A C56G G60A | -3.73
